Test results published in the supplement of paper PMC9732359.
± gives the uncertainty stated by the source.

Assay: protein stability index of a GFP-peptide fusion (yeast GPS) (PSI 1-4); higher = more stable; sorted into four equal gates, so the index is relative within each strain
Method in brief: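 Tiled 17-residue peptides from yeast proteins were fused downstream of GFP on a plasmid that also expresses Cherry, and the pooled library was carried in yeast. Mid-log cultures grown in leucine-free medium were sorted into four equal gates by GFP/Cherry fluorescence ratio. Plasmids from each gate were PCR-amplified and Illumina-sequenced, and reads were assigned to strains by barcodes. Each peptide's protein stability index is the sum, over gates, of the gate's read frequency multiplied by its gate number.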

Sequence	protein stability index (doa10∆)	protein stability index (pdr5∆)	protein stability index (san1∆)	protein stability index (ubr1∆)
TAFATEFFVQVLTHESL [DLS1]	2.47 ± 0.11	2.71 ± 0.11	2.73 ± 0.088	2.02 ± 0.046
TALALKYLIKYNVFRQH [CSI1]	1.63 ± 0.06	1.8 ± 0.049	1.7 ± 0.11	1.86 ± 0.053
TANANKPAFSFGATTND [YJL041W/NSP1]	3.01 ± 0.07	2.74 ± 0.051	2.91 ± 0.047	2.88 ± 0.039
TARRNVSGDAAALFRLH [SWI3]	2.43 ± 0.093	2.98 ± 0.099	2.78 ± 0.086	1.95 ± 0.063
TCPGLSLTDVAFFTYDA [ECM29]	3.36 ± 0.14	3.05 ± 0.091	2.78 ± 0.072	3.11 ± 0.099
TDEHLIFNSGKMIILDK [ISW2]	3 ± 0.24	2.74 ± 0.074	2.35 ± 0.1	2.59 ± 0.058
TDGADENVQIGEDFMEV [SRB4]	2.66 ± 0.12	3.35 ± 0.17		3.1 ± 0.19
TDKVSLSQPVSASKHEY [SIR4]	2.29 ± 0.079	2.53 ± 0.057	2.24 ± 0.082	1.95 ± 0.041
TDLKKIIKANQLILSDV [RET1]	2.57 ± 0.055	2.34 ± 0.053	2.48 ± 0.053	2.39 ± 0.05
TEDRYNEYVAKVSAREK [FAS2]	3.2 ± 0.086	3.14 ± 0.074	3.04 ± 0.094	3.3 ± 0.06
TEENKANTNSVTSMEAA [YIL149C/MLP2]	3.46 ± 0.1	3.5 ± 0.089	3.12 ± 0.08	3.13 ± 0.058
TEKKFTKEQYAAESKKY [RPL5]	3.2 ± 0.16	3.07 ± 0.14	2.98 ± 0.075	3.02 ± 0.11
TETALMNLKKELQGYIE [SRB5]	3.05 ± 0.097	3.07 ± 0.089	3.11 ± 0.062	2.94 ± 0.085
TEYCVGDYVAYQLNGVA [YMR129W/POM152]	2.83 ± 0.14	3.1 ± 0.13	2.1 ± 0.23	2.52 ± 0.066
TEYGRKYNVNISALTQT [PRP8]	2.07 ± 0.14	2.53 ± 0.093	2.94 ± 0.14	2.5 ± 0.047
TFAQEKLNTFENDLLQE [SMC3]	3.33 ± 0.18	3.26 ± 0.12	3.12 ± 0.13	2.81 ± 0.13
TFAVILFLIIQCYKIYD [YMR129W/POM152]	1.35 ± 0.057	1.22 ± 0.046	1.19 ± 0.094	1.31 ± 0.053
TFEIPQAHEIVIPSYSK [SWI3]	2.43 ± 0.095	2.37 ± 0.07	2.39 ± 0.065	2.36 ± 0.064
TFENTNNTEKNDVTNKN [SIR4]	2.78 ± 0.094	2.89 ± 0.068	2.88 ± 0.059	3.04 ± 0.039
TFFPRCIIAVSCTLLER [POP1]	1.31 ± 0.024	1.36 ± 0.032	1.5 ± 0.051	1.63 ± 0.03
TFGIRRNEKIAVHVTVR [RPL11A]	2.17 ± 0.082	1.68 ± 0.076	2.12 ± 0.081	2.21 ± 0.072
TFHDYDMVKLDINPPLV [RRP42]	2.94 ± 0.088	2.73 ± 0.061	2.87 ± 0.096	3.15 ± 0.037
TFQRVCQYMVACVPLLP [RPN1]	2.5 ± 0.06	2.42 ± 0.071	1.86 ± 0.14	2.53 ± 0.1
TFSVYHESTSRTDQYTI [YMR129W/POM152]	2.63 ± 0.15	2.64 ± 0.077	2.58 ± 0.098	2.62 ± 0.066
TGANSIYSVEKKISRLP [UBP6]	3 ± 0.08	3.52 ± 0.11	3.07 ± 0.059	3.26 ± 0.037
TGITKKDEDEEADEDMK [PRE9]	3.09 ± 0.057	3.3 ± 0.074	3.06 ± 0.064	3.07 ± 0.061

Sequence	protein stability index (doa10∆)	protein stability index (pdr5∆)	protein stability index (san1∆)	protein stability index (ubr1∆)
TGTGLQDENIGLSMLAK [RPC31]	3.12 ± 0.14		3.05 ± 0.13	3.4 ± 0.11
TGVMIGIDLAYNMYDAY [PRP8]	2.5 ± 0.064	2.69 ± 0.053	2.82 ± 0.066	2.84 ± 0.051
THSKLFADKKRDCIDIS [PRP8]	3.45 ± 0.095	3.2 ± 0.077	3.18 ± 0.061	3.38 ± 0.074
TIEHAADITDGNNTELT [YCG1]	3.29 ± 0.081	3.46 ± 0.082	3.33 ± 0.078	3.31 ± 0.069
TIEVLDEVITEGQADID [POP7]	2.94 ± 0.064	3.1 ± 0.061	3.06 ± 0.072	3.07 ± 0.049
TIFGGVDKNGAHLYMLE [PRE10]	2.88 ± 0.076	2.66 ± 0.071	2.87 ± 0.086	3.29 ± 0.075
TIFNLPKNKLVPTLEAK [FAS1]	2.27 ± 0.059	2.34 ± 0.081	3.08 ± 0.051	3.01 ± 0.061
TIFSPEGRLYQVEYALE [PRE9]	3.13 ± 0.079	3.32 ± 0.088	3.14 ± 0.11	3.12 ± 0.051
TIGGGLFGNKPTTTTGG [YGR119C/NUP57]	3 ± 0.094	3.25 ± 0.21	3.56 ± 0.15	
TIGPYRARKDRMRVSVL [SSN3]	3.19 ± 0.15	2.99 ± 0.085	3.07 ± 0.083	3.12 ± 0.052
TIITDCAFLLTKIKDAE [YJL039C/NUP192]	2.52 ± 0.071	2.78 ± 0.077	2.06 ± 0.13	2.52 ± 0.07
TIKVAGTPLLEVRGQVP [SNU114]	2.67 ± 0.08	2.69 ± 0.067	2.94 ± 0.063	2.98 ± 0.069
TIKVVKRSMDAEQLGHA [RPP1]	3.18 ± 0.067	3.28 ± 0.07	3.41 ± 0.042	3.38 ± 0.077
TILQHLSEAWRCWKANI [PRP8]	3.33 ± 0.081	3.36 ± 0.083	3.5 ± 0.047	3.32 ± 0.068
TILYLNVFHGLCAGANN [IRR1]	1.3 ± 0.071	1.64 ± 0.083	1.39 ± 0.087	1.34 ± 0.076
TIPLGGSVHKLPYAIAG [PRE3]	2.97 ± 0.066	2.91 ± 0.085	2.84 ± 0.089	3.08 ± 0.045
TIRVVTENKIFVEVERA [RPN5]	1.51 ± 0.18	1.94 ± 0.14		2.45 ± 0.27
TIRYPDPNIKVNDTVKI [RPS4A]	2.48 ± 0.09	2.87 ± 0.097	2.75 ± 0.1	2.71 ± 0.066
TKDKAKKIREIYRYDEM [BRR2]	2.58 ± 0.14	2.71 ± 0.1	2.46 ± 0.14	2.89 ± 0.059
TKEVESNIITKSLVQYI [DIS3]	2.71 ± 0.14	3.05 ± 0.11	2.65 ± 0.076	2.87 ± 0.19
TKGMITNLQRNVDRLYK [NUT2]	3.47 ± 0.29	3.35 ± 0.18	2.69 ± 0.24	3.24 ± 0.16
TKIAQSQTMAETYVASY [ECM29]	1.92 ± 0.037	2.48 ± 0.036	2.27 ± 0.044	2.22 ± 0.034
TKKTITPMGGFVHYGEI [RPL3]	3.2 ± 0.074	3.1 ± 0.072	3.08 ± 0.093	3.01 ± 0.046
TKLIQYEHNGRTLEAIT [CSL4]	2.22 ± 0.049	2.48 ± 0.044	2.38 ± 0.055	2.29 ± 0.034
TKNIPITHRDLHYDKDY [SSN8]	2.65 ± 0.043	2.87 ± 0.041	2.87 ± 0.03	2.83 ± 0.039
